Measured values published in US20210238260A1 (published 2021).

Tests used:
[1] = biological target: T1, Factor VIIIa (recombinant FVIII, Kogenate FS, activated with alpha-thrombin) (UniProt P00451 20-2351); experiment: same assay; ratio of KD-app of Catalyst Biosciences WT FIXa to KD-app of this FIXa
T1 construct: also called FVIIIa; cofactor
T1 sequence (looked up): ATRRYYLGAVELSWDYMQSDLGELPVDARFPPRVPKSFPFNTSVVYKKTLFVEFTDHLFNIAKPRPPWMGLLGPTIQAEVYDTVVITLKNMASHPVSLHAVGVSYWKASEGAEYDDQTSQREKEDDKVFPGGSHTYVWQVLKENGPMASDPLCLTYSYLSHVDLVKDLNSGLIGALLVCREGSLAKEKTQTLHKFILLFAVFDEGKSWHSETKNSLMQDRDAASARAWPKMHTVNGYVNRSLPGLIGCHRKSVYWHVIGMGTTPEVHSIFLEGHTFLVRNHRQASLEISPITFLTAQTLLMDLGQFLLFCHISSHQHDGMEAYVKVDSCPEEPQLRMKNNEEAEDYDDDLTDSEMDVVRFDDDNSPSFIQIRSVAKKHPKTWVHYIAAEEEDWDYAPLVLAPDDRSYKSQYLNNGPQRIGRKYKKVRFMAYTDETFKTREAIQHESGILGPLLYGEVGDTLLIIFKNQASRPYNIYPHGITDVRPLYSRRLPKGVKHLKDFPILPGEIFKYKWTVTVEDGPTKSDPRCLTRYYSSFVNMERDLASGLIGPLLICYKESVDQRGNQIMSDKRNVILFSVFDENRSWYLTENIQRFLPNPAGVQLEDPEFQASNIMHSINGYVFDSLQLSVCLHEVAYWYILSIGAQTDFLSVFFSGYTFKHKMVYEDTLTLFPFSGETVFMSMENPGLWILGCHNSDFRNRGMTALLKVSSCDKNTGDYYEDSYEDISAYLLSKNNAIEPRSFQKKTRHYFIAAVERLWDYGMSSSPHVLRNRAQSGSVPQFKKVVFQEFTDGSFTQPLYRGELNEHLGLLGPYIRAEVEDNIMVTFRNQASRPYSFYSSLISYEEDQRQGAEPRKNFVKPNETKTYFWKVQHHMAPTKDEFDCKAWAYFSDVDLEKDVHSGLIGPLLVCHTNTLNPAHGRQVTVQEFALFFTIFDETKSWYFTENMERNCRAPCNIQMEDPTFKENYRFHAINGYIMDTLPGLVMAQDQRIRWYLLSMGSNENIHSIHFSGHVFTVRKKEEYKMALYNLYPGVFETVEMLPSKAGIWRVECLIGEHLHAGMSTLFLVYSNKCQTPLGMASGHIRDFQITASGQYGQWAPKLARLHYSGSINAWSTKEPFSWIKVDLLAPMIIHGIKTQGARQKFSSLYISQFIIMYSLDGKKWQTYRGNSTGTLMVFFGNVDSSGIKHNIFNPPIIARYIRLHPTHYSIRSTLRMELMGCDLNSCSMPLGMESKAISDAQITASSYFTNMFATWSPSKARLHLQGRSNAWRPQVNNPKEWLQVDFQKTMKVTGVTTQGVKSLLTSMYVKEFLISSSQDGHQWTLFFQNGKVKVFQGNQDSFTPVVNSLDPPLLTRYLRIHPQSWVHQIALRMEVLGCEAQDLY

[2] = biological target: T1, Factor VIIIa (recombinant FVIII, …); experiment: apparent functional KD (KD-app): FXa generation by FIXa with FVIIIa titrated, PC/PS vesicles, saturating FX, fluorogenic Spectrafluor FXa
[3] = biological target: T2, plasma purified human antithrombin III (AT-III), in complex with unfractionated heparin (UFH) (human, UniProt P01008 33-464); experiment: K0.5: AT-III concentration (with excess UFH) for 50% inhibition of FIXa activity on Mesyl-D-CHG-Gly-Arg-AMC, 10 s incubation
T2 construct: also called AT-III/UFH

B1: FIXa-R318Y/R338E/R403E/E410N (enzyme)
chain 1: YNSGKLEEFVQGNLERECMEEKCSFEEAREVFENTERTTEFWKQYVDGDQCESNPCLNGGSCKDDINSYECWCPFGFEGKNCELDVTCNIKNGRCEQFCKNSADNKVVCSCTEGYRLAENQKSCEPAVPFPCGRVSVSQTSKLTR
chain 2: VVGGEDAKPGQFPWQVVLNGKVDAFCGGSIVNEKWIVTAAHCVETGVKITVVAGEHNIEETEHTEQKRNVIRIIPHHNYNAAINKYNHDIALLELDEPLVLNSYVTPICIADKEYTNIFLKFGSGYVSGWGRVFHKGYSALVLQYLRVPLVDRATCLESTKFTIYNNMFCAGFHEGGRDSCQGDSGGPHVTEVEGTSFLTGIISWGEECAMKGKYGIYTKVSEYVNWIKNKTKLT
notes: also called R150Y/R170E/R233E/E240N
KD-WT/KD-mut [1]: 2
Kd [2]: 47 nM

B2: FIXa-D104N/K106S/Y155F/R318Y/R338E/R403E/E410N (enzyme)
chain 1: YNSGKLEEFVQGNLERECMEEKCSFEEAREVFENTERTTEFWKQYVDGDQCESNPCLNGGSCKDDINSYECWCPFGFEGKNCELDVTCNIKNGRCEQFCKNSANNSVVCSCTEGYRLAENQKSCEPAVPFPCGRVSVSQTSKLTR
chain 2: VVGGEDAKPGQFPWQVVLNGKVDAFCGGSIVNEKWIVTAAHCVETGVKITVVAGEHNIEETEHTEQKRNVIRIIPHHNYNAAINKYNHDIALLELDEPLVLNSYVTPICIADKEYTNIFLKFGSGYVSGWGRVFHKGYSALVLQYLRVPLVDRATCLESTKFTIYNNMFCAGFHEGGRDSCQGDSGGPHVTEVEGTSFLTGIISWGEECAMKGKYGIYTKVSEYVNWIKNKTKLT
KD-WT/KD-mut [1]: 1.6
Kd [2]: 61.6 nM

B3: FIXa-R338E/R403E/E410N (enzyme)
chain 1: YNSGKLEEFVQGNLERECMEEKCSFEEAREVFENTERTTEFWKQYVDGDQCESNPCLNGGSCKDDINSYECWCPFGFEGKNCELDVTCNIKNGRCEQFCKNSADNKVVCSCTEGYRLAENQKSCEPAVPFPCGRVSVSQTSKLTR
chain 2: VVGGEDAKPGQFPWQVVLNGKVDAFCGGSIVNEKWIVTAAHCVETGVKITVVAGEHNIEETEHTEQKRNVIRIIPHHNYNAAINKYNHDIALLELDEPLVLNSYVTPICIADKEYTNIFLKFGSGYVSGWGRVFHKGRSALVLQYLRVPLVDRATCLESTKFTIYNNMFCAGFHEGGRDSCQGDSGGPHVTEVEGTSFLTGIISWGEECAMKGKYGIYTKVSEYVNWIKNKTKLT
notes: also called R170E/R233E/E240N
KD-WT/KD-mut [1]: 1.7
Kd [2]: 54.9 nM

B4: FIXa-R318Y/R338E/R403E (enzyme)
chain 1: YNSGKLEEFVQGNLERECMEEKCSFEEAREVFENTERTTEFWKQYVDGDQCESNPCLNGGSCKDDINSYECWCPFGFEGKNCELDVTCNIKNGRCEQFCKNSADNKVVCSCTEGYRLAENQKSCEPAVPFPCGRVSVSQTSKLTR
chain 2: VVGGEDAKPGQFPWQVVLNGKVDAFCGGSIVNEKWIVTAAHCVETGVKITVVAGEHNIEETEHTEQKRNVIRIIPHHNYNAAINKYNHDIALLELDEPLVLNSYVTPICIADKEYTNIFLKFGSGYVSGWGRVFHKGYSALVLQYLRVPLVDRATCLESTKFTIYNNMFCAGFHEGGRDSCQGDSGGPHVTEVEGTSFLTGIISWGEECAMKGKYGIYTKVSEYVNWIKEKTKLT
notes: also called R150Y/R170E/R233E
KD-WT/KD-mut [1]: 0.3
Kd [2]: 340 nM

B5: FIXa-D104N/K106S/Y155F/K247N/N249S/N260S (enzyme)
chain 1: YNSGKLEEFVQGNLERECMEEKCSFEEAREVFENTERTTEFWKQYVDGDQCESNPCLNGGSCKDDINSYECWCPFGFEGKNCELDVTCNIKNGRCEQFCKNSANNSVVCSCTEGYRLAENQKSCEPAVPFPCGRVSVSQTSKLTR
chain 2: VVGGEDAKPGQFPWQVVLNGKVDAFCGGSIVNEKWIVTAAHCVETGVKITVVAGEHNIEETEHTEQNRSVIRIIPHHNYSAAINKYNHDIALLELDEPLVLNSYVTPICIADKEYTNIFLKFGSGYVSGWGRVFHKGRSALVLQYLRVPLVDRATCLRSTKFTIYNNMFCAGFHEGGRDSCQGDSGGPHVTEVEGTSFLTGIISWGEECAMKGKYGIYTKVSRYVNWIKEKTKLT
IC50 [3]: 692 nM
